Assay results as given in paper PMC11969024 (2025).

B1: peptide HD2 (from tick evasin EVA4) / CCL22 (biotinylated, synthetic) (parent complex)
chain 1: EEDDYTAYAPLTCYFT
chain 2: GPYGANMEDSVCCRDYVRYRLPLRVVKHFYWTSDSCPRPGVVLLTFRDKEICADPRVPWVKMILNKLSQ
B2: peptide HD2 (from tick evasin EVA4) / CXCL13 (biotinylated, synthetic) (parent complex)
chain 1: EEDDYTAYAPLTCYFT
chain 2: VLEVYYTSLRCRCVQESSVFIPRRFIDRIQILPRGNGCPRKEIIVWKKNKSIVCVDPQAEWIQRMMEVLRKRSSSTLPVPVFKRKIP

Variants of: B1

Row | Variant | enrichment
1 | chain 1 EEDDYTAYAPLTCYWT [chain 1 F15W] | 0.858 log2 (difference from the parental peptide)
2 | chain 1 EEDDYTAYEPLTCYFT [chain 1 A9E] | -1.54 log2 (difference from the parental peptide)
3 | chain 1 EEDDYTAYVPLTCYFT [chain 1 A9V] | -7.85 log2 (difference from the parental peptide)
4 | chain 1 EEDDYTAYKPLTCYFT [chain 1 A9K] | -1.67 log2 (difference from the parental peptide)
5 | chain 1 EEDDYTAYRPLTCYFT [chain 1 A9R] | 0.319 log2 (difference from the parental peptide)
6 | chain 1 EEDDYTAYFPLTCYFT [chain 1 A9F] | -6.96 log2 (difference from the parental peptide)
7 | chain 1 EEDDYTAYQPLTCYFT [chain 1 A9Q] | -2.13 log2 (difference from the parental peptide)
8 | chain 1 EEDDYTAYAPLTCLFT [chain 1 Y14L] | -2.35 log2 (difference from the parental peptide)
9 | chain 1 EEDDYTAYAPLTCVFT [chain 1 Y14V] | 0.032 log2 (difference from the parental peptide)
10 | chain 1 EEDDYTAYAPLTCTFT [chain 1 Y14T] | 1.08 log2 (difference from the parental peptide)
11 | chain 1 EEDDYTAYAPLTCAFT [chain 1 Y14A] | -1.98 log2 (difference from the parental peptide)
12 | chain 1 EEDDYTAYAPLTCNFT [chain 1 Y14N] | -0.898 log2 (difference from the parental peptide)
13 | chain 1 EEDDYTAYAPLTCGFT [chain 1 Y14G] | -4.12 log2 (difference from the parental peptide)
14 | chain 1 EEDDYTAYAPLTCKFT [chain 1 Y14K] | -0.0931 log2 (difference from the parental peptide)
15 | chain 1 EEDDYTAYAPLPCYFT [chain 1 T12P] | 2.6 log2 (difference from the parental peptide)
16 | chain 1 EEDDYTAYAPLNCYFT [chain 1 T12N] | -0.224 log2 (difference from the parental peptide)
17 | chain 1 EEDDYTAYAPLSCYFT [chain 1 T12S] | -0.091 log2 (difference from the parental peptide)
18 | chain 1 EEDDYTAYAPLRCYFT [chain 1 T12R] | 4.22 log2 (difference from the parental peptide)
19 | chain 1 EEDDYTAYAPLKCYFT [chain 1 T12K] | 2.34 log2 (difference from the parental peptide)
20 | chain 1 EEDDYTAYAPLACYFT [chain 1 T12A] | -0.997 log2 (difference from the parental peptide)

Variants of: B2

Row | Variant | enrichment
21 | chain 1 EEDDATAYAPLTCYFT [chain 1 Y5A] | -2.67 log2 (difference from the parental peptide)
22 | chain 1 EEDDDTAYAPLTCYFT [chain 1 Y5D] | 1.05 log2 (difference from the parental peptide)
23 | chain 1 EEDDMTAYAPLTCYFT [chain 1 Y5M] | -0.226 log2 (difference from the parental peptide)
24 | chain 1 EEDDGTAYAPLTCYFT [chain 1 Y5G] | -3.88 log2 (difference from the parental peptide)
25 | chain 1 EEDDHTAYAPLTCYFT [chain 1 Y5H] | -5.1 log2 (difference from the parental peptide)
26 | chain 1 EEDDPTAYAPLTCYFT [chain 1 Y5P] | -1.42 log2 (difference from the parental peptide)
27 | chain 1 EEDDYTTYAPLTCYFT [chain 1 A7T] | 2.08 log2 (difference from the parental peptide)
28 | chain 1 EEDDYTAYAPLTCYST [chain 1 F15S] | -6.75 log2 (difference from the parental peptide)
29 | chain 1 EEDDYTAYADLTCYFT [chain 1 P10D] | 0.396 log2 (difference from the parental peptide)
30 | chain 1 EEDDYTAYANLTCYFT [chain 1 P10N] | -5.21 log2 (difference from the parental peptide)
31 | chain 1 EEDDYTAYAPLMCYFT [chain 1 T12M] | -0.149 log2 (difference from the parental peptide)
32 | chain 1 EEDDYTAYAPLFCYFT [chain 1 T12F] | -1.29 log2 (difference from the parental peptide)
33 | chain 1 EEDDYTAYAPLDCYFT [chain 1 T12D] | -5.43 log2 (difference from the parental peptide)
34 | chain 1 EEDDYTAYAPLTCYFG [chain 1 T16G] | 2.07 log2 (difference from the parental peptide)
35 | chain 1 EEDDYTAYAPLTCYFS [chain 1 T16S] | 0.948 log2 (difference from the parental peptide)
36 | chain 1 EEDDYTAYAPLTCYFF [chain 1 T16F] | -1.23 log2 (difference from the parental peptide)
37 | chain 1 EEDDYTAYAPLTCYFR [chain 1 T16R] | -7.96 log2 (difference from the parental peptide)
38 | chain 1 EEMDYTAYAPLTCYFT [chain 1 D3M] | -5.03 log2 (difference from the parental peptide)

Row | Variant | enrichment
39 | chain 1 EELDYTAYAPLTCYFT [chain 1 D3L] | -5.21 log2 (difference from the parental peptide)
40 | chain 1 EEDDYTAYAPLTLYFT [chain 1 C13L] | -10.1 log2 (difference from the parental peptide)
41 | chain 1 EEDDYTAYAPATCYFT [chain 1 L11A] | -7.28 log2 (difference from the parental peptide)
42 | chain 1 EEDDYTAYAPWTCYFT [chain 1 L11W] | -1.43 log2 (difference from the parental peptide)
43 | chain 1 EEDDYTAYAPLTCHFT [chain 1 Y14H] | -4.76 log2 (difference from the parental peptide)
44 | chain 1 EEDDYTAYYPLTCYFT [chain 1 A9Y] | -1.21 log2 (difference from the parental peptide)
45 | chain 1 EEDDYTAYHPLTCYFT [chain 1 A9H] | -1.63 log2 (difference from the parental peptide)
46 | chain 1 DEDDYTAYAPLTCYFT [chain 1 E1D] | 2.17 log2 (difference from the parental peptide)
47 | chain 1 KEDDYTAYAPLTCYFT [chain 1 E1K] | -4.84 log2 (difference from the parental peptide)
48 | chain 1 SEDDYTAYAPLTCYFT [chain 1 E1S] | -2.39 log2 (difference from the parental peptide)
49 | chain 1 EEDDYKAYAPLTCYFT [chain 1 T6K] | -2.94 log2 (difference from the parental peptide)
50 | chain 1 EEDDYMAYAPLTCYFT [chain 1 T6M] | 3.02 log2 (difference from the parental peptide)
51 | chain 1 EEDYYTAYAPLTCYFT [chain 1 D4Y] | -2.64 log2 (difference from the parental peptide)
52 | chain 1 EEDGYTAYAPLTCYFT [chain 1 D4G] | -5 log2 (difference from the parental peptide)
53 | chain 1 EEDDYTAGAPLTCYFT [chain 1 Y8G] | -3.39 log2 (difference from the parental peptide)
54 | chain 1 EEDDYTAAAPLTCYFT [chain 1 Y8A] | -4.55 log2 (difference from the parental peptide)
55 | chain 1 EWDDYTAYAPLTCYFT [chain 1 E2W] | 1.38 log2 (difference from the parental peptide)
56 | chain 1 ESDDYTAYAPLTCYFT [chain 1 E2S] | -2.79 log2 (difference from the parental peptide)
